Measured values published in US20200276330A1 (NANOMAB TECHNOLOGY, published 2020).
Substitutions are numbered along the chain they refer to. One block for each binder: values may come before it.

Key:
[1] = biological target: T1, PD-L1 on HCC827 cells (high PD-L1 expression) and A549 cells (low PD-L1 expression) (UniProt Q9NZQ7 19-290, limits assumed); assay: flow cytometry on A549 cells (low PD-L1 expression), anti-HA Alexa Fluor 488
T1 construct: whole, on cells; HCC827 and A549 are known human lung cancer lines

[2] = biological target: T2, human PD-L1 full-length protein on transiently transfected HEK293F cells (human, UniProt Q9NZQ7 19-290); assay: flow cytometry competition: 10 ug nanobody + 5 ug hPD-1-Fc-Biotin on HEK293F cells expressing human PD-L1, SA-PE
T2 construct: whole, on cells
Procedure: (1) 1×10⁶ HEK293F cells transiently transfected to express human PD-L1 full-length protein were collected and resuspended in 0.5% BSA-PBS buffer. And 10 μg of anti-PD-L1 nanobodies were added, and a positive control, a negative control and blank group (PBS) were set up. All samples were incubated with 5 μg of hPD-1-Fc-Biotin for 20 minutes at 4° C.
(2) The cells were washed twice by PBS and incubated with SA-PE from eBioscience for 20 minutes at 4° C. Cells were washed again with PBS twice and were detected by flow cytometry.

[3] = biological target: T3, PD-L1 (coated on the ELISA plate) (UniProt Q9NZQ7 19-238, limits assumed); assay: ELISA with gradient dilution of nanobody on coated PD-L1
T3 construct: also called B7-H1; CD274
Procedure: (1) The PD-L1 was coated on the plate, and IgG and NaHCO₃ (100 mM, pH8.2) were used as blank controls. All were incubated overnight at 4° C.
(3) The purified nanobodies were diluted, and reacted with coated PD-L1, IgG and NaHCO₃ at room temperature for 1 hour.

[4] = biological target: T1, PD-L1 on HCC827 cells (high PD-L1 …); assay: flow cytometry on HCC827 cells (high PD-L1 expression), anti-HA Alexa Fluor 488

T3 sequence (Q9NZQ7 19-238 limits assumed): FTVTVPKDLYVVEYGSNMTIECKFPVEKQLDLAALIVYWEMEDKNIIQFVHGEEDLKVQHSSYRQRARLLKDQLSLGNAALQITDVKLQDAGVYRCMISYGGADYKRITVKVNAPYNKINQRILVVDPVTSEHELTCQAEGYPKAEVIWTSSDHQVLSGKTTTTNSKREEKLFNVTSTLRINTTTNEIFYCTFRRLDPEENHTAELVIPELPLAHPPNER
T2 sequence (Q9NZQ7 19-290): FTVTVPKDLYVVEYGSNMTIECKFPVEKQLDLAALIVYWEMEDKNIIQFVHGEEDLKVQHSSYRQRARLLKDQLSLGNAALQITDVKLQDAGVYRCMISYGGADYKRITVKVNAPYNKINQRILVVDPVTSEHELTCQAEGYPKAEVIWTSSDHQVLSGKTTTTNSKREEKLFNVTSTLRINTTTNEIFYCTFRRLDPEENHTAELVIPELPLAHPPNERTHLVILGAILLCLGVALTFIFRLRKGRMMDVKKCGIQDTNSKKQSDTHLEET
T1 sequence (Q9NZQ7 19-290 limits assumed): as the sequence (Q9NZQ7 19-290) above

positive rate, A549 [1]: 32.6% | PD-1/PD-L1 Inhibitory effect [2]: 19.3% | Kd [3]: 1.62 nM | positive rate, HCC827 [4]: 92.8%
B1: Nanobody No. 2 (VHH)
VHH: QVQLQESGGGSVQAGGSLRLSCAASGYTYSSDGMGWFRQTPGKEREGVAAISPTGRRTEYADSVKGRFTISRDNNKNMLSLQMNSLKPEDTGMYYCAREGSWSFSLANSAVRSWGQGTQVTVSS
notes: Expressed in E. coli WK6 and purified on a nickel column; not shown: HA and His tags (implied by anti-HA detection and nickel column)

positive rate, A549 [1]: 11.5% | PD-1/PD-L1 Inhibitory effect [2]: 19.3% | Kd [3]: 7.96 nM | positive rate, HCC827 [4]: 88.1%
B2: Nanobody No. 1 (VHH)
VHH: QVQLQESGGGSVQTGGSLRLSCAASTSIYSNNYMAWFSQAPGKGREGVAAVYIDDGRPYYADSVKGRFTISLDSAKNTVYLQMNRLKPEDTAMYYCAAAPGPLSHNYWYTSANYDYWGQGTQVTVSS
notes: as for B1

positive rate, A549 [1]: 13.5% | PD-1/PD-L1 Inhibitory effect [2]: 19.2% | Kd [3]: 4.46 nM | positive rate, HCC827 [4]: 66.5%
B3: Nanobody No. 3 (VHH)
VHH: B2 VHH with A23T, A40S, I53M, V79M, R85S, H105R
notes: as for B1
